# Where a chain is given by its changes, count along the chain named.
# T1: in-line fusion protein of human IL-36R extracellular domain and IL1RAcP extracellular domain expressed with … (human; mouse, UniProt Q9HB29 20-337; Q9NPH3 21-359, limits assumed)
# T1 construct: not shown: mouse IgG2a Fc
# T1 sequence (looked up): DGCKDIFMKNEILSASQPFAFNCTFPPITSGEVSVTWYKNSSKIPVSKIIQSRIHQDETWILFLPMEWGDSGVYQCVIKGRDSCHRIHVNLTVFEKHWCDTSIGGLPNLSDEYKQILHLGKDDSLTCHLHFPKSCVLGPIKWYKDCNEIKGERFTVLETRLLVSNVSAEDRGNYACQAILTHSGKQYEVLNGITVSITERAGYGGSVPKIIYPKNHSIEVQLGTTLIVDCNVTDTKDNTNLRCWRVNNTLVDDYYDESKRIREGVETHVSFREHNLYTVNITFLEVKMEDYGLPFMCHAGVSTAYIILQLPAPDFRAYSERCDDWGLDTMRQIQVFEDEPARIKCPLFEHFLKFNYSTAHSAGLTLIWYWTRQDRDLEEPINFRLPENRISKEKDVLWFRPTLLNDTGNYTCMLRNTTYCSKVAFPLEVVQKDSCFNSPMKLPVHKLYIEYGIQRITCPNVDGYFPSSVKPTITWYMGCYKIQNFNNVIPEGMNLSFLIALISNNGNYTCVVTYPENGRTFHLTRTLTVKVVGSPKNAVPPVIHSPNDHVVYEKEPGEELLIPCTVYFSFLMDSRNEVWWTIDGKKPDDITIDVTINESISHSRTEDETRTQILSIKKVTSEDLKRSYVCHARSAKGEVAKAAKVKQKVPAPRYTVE
# T2: human IL-36R extracellular domain expressed with a C-terminal mouse IgG2a Fc tag (hIL-36R-mFc) (human; mouse, UniProt Q9HB29 20-337)
# T2 construct: not shown: mouse IgG2a Fc, E98-K330
# T2 sequence (looked up): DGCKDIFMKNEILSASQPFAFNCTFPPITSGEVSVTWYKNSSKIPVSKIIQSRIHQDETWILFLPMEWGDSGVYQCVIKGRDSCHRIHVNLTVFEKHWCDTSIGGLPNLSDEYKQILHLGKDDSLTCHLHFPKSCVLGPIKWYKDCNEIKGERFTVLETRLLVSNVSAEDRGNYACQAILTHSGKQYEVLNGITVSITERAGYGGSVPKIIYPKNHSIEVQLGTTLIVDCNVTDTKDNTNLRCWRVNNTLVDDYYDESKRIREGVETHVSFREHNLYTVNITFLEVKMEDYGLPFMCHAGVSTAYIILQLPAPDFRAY
# B1: H4H14734P2 (antibody, human IgG4 S228P, kappa, V domains shown)
# VH: EVQLVESGGGLVKPGGSLRLSCAASGFIFSNAWMNWVRQAPGKGLAWVGRIKTETDGGTTDYAAPVKGRFTISRDDSKNTLYLQMNSVKTEDTAVYYCTGGYSYGDDSSSWNEGYYYYGMDVWGQGTTVTVSS
# VL: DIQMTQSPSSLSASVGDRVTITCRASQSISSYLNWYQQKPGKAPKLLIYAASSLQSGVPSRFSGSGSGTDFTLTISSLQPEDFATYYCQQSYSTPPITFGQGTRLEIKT
# notes: Fully human anti-IL-36R antibody; also called H14H14734P2
# B2: H4H14757P (antibody, human IgG4 S228P, kappa, V domains shown)
# VH: EVQLVESGGGLVQPGRSLRLSCTASGFTFDDYAMHWVRQAPGKGLEWVSGIRWNGGSIGYVDSVKGRFTISRDNAKKSLHLQMNSLKTEDTALYYCAKDIGDILTGFYGEYGMDVWGQGTTVTVSS
# VL: DIQMTQSPSSLSASEGDRVTITCRASQSISSYLNWYQQKAGKAPNLLIYAASSLQSGVPSRFSGSGSGTEYTLTISSLQPEDFATYYCQQSYIIPYTFGQGTKLEIKR
# notes: Fully human anti-IL-36R antibody
# B3: H4H14758P (antibody, human IgG4 S228P, kappa, V domains shown)
# VH: EVQLVESGGGLVQPGRSLRLSCAASGFTFDDYAMHWVRQAPGKGLEWVSSVRWNGGIIGYADSVKGRFTISRDNAKNSLYLQMNSLRPEDTALYYCAKDIGDVLTGYYGEYGMDVWGQGTTVTVSS
# VL: B2 VL with E15V, T22A, S30T, S31T, A40P, N45K, E70D, Y71F, I94S
# notes: as for B2
# B4: H4H14760P2 (antibody, human IgG4 S228P, kappa, V domains shown)
# VH: QVQLVESGGGVVQPGKSLRLSCAASGFTFSNYGIHWVRQAPGKGLEWVAIILYDGSNQHYADSVKGRFTISRDNSKNTLYLQMNNLRAEDTAVYYCARDLDLWSGYYTNGDGMDVWGQGTTVTVSS
# VL: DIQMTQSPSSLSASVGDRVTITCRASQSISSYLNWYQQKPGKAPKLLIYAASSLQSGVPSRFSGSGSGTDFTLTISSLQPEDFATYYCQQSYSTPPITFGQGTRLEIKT
# notes: as for B2
# Target: T3, human IL-36R extracellular domain expressed with a C-terminal myc-myc-hexahistidine tag (hIL-36R-MMH) (human, UniProt Q9HB29 20-337)
# T3 construct: also called Human IL-36R-MMH; REGN2105
# Test: SPR Biacore T200, mAb captured on anti-hFc, 37C, PBS-T pH 7.4 running buffer
# Method: (§1) Additional binding experiments were performed to determine the effect of pH on the rate of dissociation of IL-36R bound to purified anti-IL-36R antibodies, which was determined using a real-time surface plasmon resonance biosensor using a Biacore T200 instrument. The Biacore sensor surface was first derivatized by amine coupling with a monoclonal mouse anti-human Fc antibody (GE, # BR-1008-39) to capture anti-IL-36R antibodies. […] Different concentrations of hIL-36R-MMH and mfIL-36R-MMH prepared in PBS-T, pH7.4 buffer (ranging from 100 nM to 11.11 nM, 3-fold dilutions) were injected over the anti-IL-36R antibody captured surface for 4 minutes at a flow rate of 50 μL/minute and their dissociation in two running buffers, PBS-T, pH7.4 and PBS-T, pH 6.0, was monitored for 10 minutes. All of these binding kinetics experiments were performed at 25° C. and 37° C. Kinetic dissociation constant (kd) were determined by fitting the real-time sensorgrams to a 1:1 binding model using Scrubber 2.0c curve fitting software. Binding dissociative half-lives (t_{1/2}) were calculated from kd as: […]
Binder,100 nM hIL-36R-MMH Bound (RU),koff [s⁻¹],t1/2 [min]
B1,20,0.00121,10
B2,113,0.00129,9
B3,126,0.00226,5
B4,94,0.00187,6

# Target: T3, human IL-36R extracellular domain …
# Test: SPR Biacore T200, mAb captured on anti-hFc, 25C, PBS-T pH 7.4 running buffer
# Method: as §1
Binder,100 nM Human IL-36R-MMH Bound (RU),koff [s⁻¹],t1/2 [min]
B1,20,0.000738,16
B2,105,0.000597,19
B3,108,0.00112,10
B4,80,0.000545,21

# Target: T1, in-line fusion protein of human IL-36R …
# Test: SPR Biacore 4000, mAb captured on anti-hFc, 25C
# Method: (§2) Equilibrium dissociation constants (KD values) for IL-36R binding to purified anti-IL-36R antibodies were determined using a real-time surface plasmon resonance biosensor using a Biacore 4000 instrument. The Biacore sensor surface was first derivatized by amine coupling with a monoclonal mouse anti-human Fc antibody (GE, # BR-1008-39) to capture anti-IL-36R monoclonal antibodies. All binding studies were performed in 0.01 M Hepes pH 7.4, 0.15 M NaCl, 3 mM EDTA, and 0.05% v/v Surfactant Tween-20 (HBS-ET running buffer) at 25° C. and 37° C. Different concentrations of IL-36R reagents, human IL-36R extracellular domain expressed with a C-terminal myc-myc-hexahistidine tag (hIL-36R-MMH), Macaca fascicularis IL-36R extracellular domain expressed with a C-terminal myc-myc-hexahistidine tag (mfIL-36R-MMH: mROR1 signal sequence (M1-A29). Macaca fascicularis IL36R_ecto domain (D20-A336).mycmycHis6), human IL-36R extracellular domain expressed with a C-terminal mouse IgG2a Fc tag (hIL-36R-mFc: mROR1 signal sequence (M1-A29)-human IL36R (D20-Y337)-mouse IgG2aFc (E98-K330)) or an in-line fusion protein of human IL-36R extracellular domain and IL1RAcP extracellular domain expressed with mouse IgG2a Fc tag (hIL-36R-Trap-mFc: mROR1 signal sequence (M1-A29)-human IL36R ecto domain (D20-Y337)-human IL1RacP ecto domain(S21-E359)-mouse IgG2aFc) in HBS-ET running buffer (ranging from 100 nM to 3.7 nM, 3-fold dilutions) were injected over the anti-IL-36R antibody captured surface for 4 minutes at a flow rate of 30 μL/minute and their dissociation in HBS-ET running buffer was monitored for 10 minutes. Kinetic association rate constant (kₐ) and dissociation rate constant (kd) were determined by fitting the real-time sensorgrams to a 1:1 binding model using Scrubber 2.0c curve fitting software. Binding dissociation equilibrium constants (KD) and dissociative half-lives (t_{1/2}) were calculated from the kinetic rate constants as: […]
Binder,100 nM hIL-36R-Trap-mFc Bound (RU),Kd [nM],koff [s⁻¹],kon [M⁻¹ s⁻¹],t1/2 [min]
B1,85,2.24,0.00011,48900,105
B2,202,0.212,0.000103,485000,113
B3,197,0.413,0.00018,436000,64
B4,134,0.636,0.0001,158000,115

# Target: T2, human IL-36R extracellular domain …
# Test: SPR Biacore 4000, mAb captured on anti-hFc, 25C
# Method: as §2
Binder,100 nM hIL-36R-mFc Bound (RU),Kd [nM],koff [s⁻¹],kon [M⁻¹ s⁻¹],t1/2 [min]
B1,77,1.63,0.000101,62200,114
B2,167,0.173,9.97e-05,575000,116
B3,161,0.309,0.000163,526000,71
B4,121,0.526,0.000109,207000,106

# Target: T3, human IL-36R extracellular domain …
# Test: SPR Biacore T200, mAb captured on anti-hFc, 37C, PBS-T pH 6.0 running buffer
# Method: as §1
Binder,100 nM hIL-36R-MMH Bound (RU),koff [s⁻¹],t1/2 [min]
B1,17,0.00169,7
B2,109,0.0026,4
B3,120,0.00339,3
B4,85,0.0039,3

# Target: T3, human IL-36R extracellular domain …
# Test: SPR Biacore T200, mAb captured on anti-hFc, 25C, PBS-T pH 6.0 running buffer
# Method: as §1
Binder,100 nM Human IL-36R-MMH Bound (RU),koff [s⁻¹],t1/2 [min]
B1,18,0.000787,15
B2,98,0.000887,13
B3,103,0.0018,6
B4,69,0.000972,12

# Target: T1, in-line fusion protein of human IL-36R …
# Test: SPR Biacore 4000, mAb captured on anti-hFc, 37C
# Method: as §2
Binder,100 nM hIL-36R-Trap-mFc Bound (RU),Kd [nM],koff [s⁻¹],kon [M⁻¹ s⁻¹],t1/2 [min]
B1,99,2.96,0.000143,48400,81
B2,281,0.374,0.000196,523000,59
B3,251,0.777,0.000363,468000,32
B4,195,1.7,0.000283,166000,41

# Target: T2, human IL-36R extracellular domain …
# Test: SPR Biacore 4000, mAb captured on anti-hFc, 37C
# Method: as §2
Binder,100 nM hIL-36R-mFc Bound (RU),Kd [nM],koff [s⁻¹],kon [M⁻¹ s⁻¹],t1/2 [min]
B1,96,2.31,0.000122,52700,95
B2,235,0.243,0.00015,616000,77
B3,210,0.517,0.000286,554000,40
B4,173,1.02,0.000222,217000,52
